# Measured values as given in paper PMC12134289 (Nature Communications, 2025).
# B1: WS6 S2 stem-helix broadly neutralizing antibody (antibody, V domains shown)
# VH: EVQFQQSGTVLARPGASVKMSCKASGYTFTNYWIHWVKQRPGQGLEYIGGTYPGNGDTTYNQKFKGKAKVTAVTPTSTAYMDLSSLTNEDSAVYYCTRTGSYFDYWGQGTTLTVSS
# VL: QIVLTQSPAIMSASPGEKVTISCSATSSVSYIYWYQQRPGSSPKPWIYRTSNLASGVPVRFSGSGSGTSYSLTISNMEAEDAATYYCQQYQSYPPTFGAGTKLELK
# notes: mouse-derived antibody; Whole antibody with two arms was used (200 ug/ml in PBS); also called WS6 S2 antibody; spike stalk antibody WS6; copies: 2 + 2
# Biological target: T1, extended S2 fusion intermediate of the SARS-CoV-2 spike (after S1 dissociation) (SARS-CoV-2, Victoria (probably …, UniProt P0DTC2, strain))
# T1 construct: A conformational and proteolytic state of m1, seen between the virion and ACE2VLP membranes; also called extended intermediate; extended S2 intermediate
# Assay: cryo-electron tomography; virions pre-incubated with WS6 (200 ug/ml, 1 h, 37 °C), then ACE2VLPs and trypsin for 30 min at 37 °C, PFA-fixed
# Settings: one partner purified
binder,measurement,value
B1,binding result,binds
